What was measured:
[1] = biological target: Cyclophilin 40 (human; pDEST14-6H-TEV-hCyp40) (human) (UniProt Q08752)
[2] = biological target: T1, Cyclophilin 40 (human; pDEST14-6H-TEV-hCyp40) (human, UniProt Q08752 1-370); assay: ITC; 500 uM SRMEEVD titrated into 7.7 uM Cyp40 in 15 x 2.5 ul aliquots; 50 mM Hepes pH 8, 100 mM sodium chloride, 1 mM DTT; 1:1 binding model; 10 °C; conditions: both partners purified
T1 construct: Cyclophilin 40 (Cyp40, PPID), human; construct pDEST14-6H-TEV-hCyp40; Monomeric by dynamic light scattering; also called PPID; source: E. coli BL21 star (DE3), purified (IMAC, gel filtration on Superdex 200)
T1 sequence (Q08752 whole entry): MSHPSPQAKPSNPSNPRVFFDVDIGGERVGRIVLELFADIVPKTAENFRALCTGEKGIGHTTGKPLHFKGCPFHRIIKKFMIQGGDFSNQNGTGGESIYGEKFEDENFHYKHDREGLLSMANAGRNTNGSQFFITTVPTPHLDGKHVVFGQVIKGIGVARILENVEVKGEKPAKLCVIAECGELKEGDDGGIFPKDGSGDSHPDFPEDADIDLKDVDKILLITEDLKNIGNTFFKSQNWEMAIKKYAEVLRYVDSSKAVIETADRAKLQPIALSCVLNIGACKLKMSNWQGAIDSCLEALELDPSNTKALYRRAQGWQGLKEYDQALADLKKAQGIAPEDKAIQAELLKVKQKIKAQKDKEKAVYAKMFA

[3] = biological target: T1, Cyclophilin 40 (human; …); assay: ITC; 500 uM SRMEEVD titrated into 7.7 uM Cyp40 in 15 x 2.5 ul aliquots; 50 mM Hepes pH 8, 100 mM sodium chloride, 1 mM DTT; 1:1 binding model; 30 °C (highest attainable temperature); conditions: both partners purified
[4] = biological target: T1, Cyclophilin 40 (human; …); assay: ITC; 500 uM SRMEEVD titrated into 7.7 uM Cyp40 in 15 x 2.5 ul aliquots; 50 mM Hepes pH 8, 100 mM sodium chloride, 1 mM DTT; 1:1 binding model; 20 °C (value told with Supplementary Figure S2); conditions: both partners purified

Cyclophilin 40 (human; pDEST14-6H-TEV-hCyp40) (human), sequence (Q08752 whole entry): as above

reduction of the PPIase activity of Cyp40 (10 nM) by 250 uM peptide, substrate Suc-A-A-P-F-p-NA, 10 °C [1] [%] | Kd [2] [µM] | Kd [3] [µM] | Kd [4] [µM] | Binder
> 30 |  |  |  | GAAAEEVD [GAAAEEVD peptide (Hsp70 mutant C-terminal peptide)]
> 30 |  |  |  | GPTIEEVD [GPTIEEVD peptide (Hsp70 wild-type C-terminal peptide)]
 | ~5 | ~25 | 10.7 | SRMEEVD (also called Hsp90 peptide; Hsp90 wt) [SRMEEVD peptide (Hsp90 wild-type C-terminal peptide)]
